Reference: publication PMC11629553, “Mechanistic diversity and functional roles define the substrate specificity and ligand binding of bacterial PGP phosphatases” (The Journal of Biological Chemistry, 2024)
Where two headings read alike, the source gives them in different places.

Key:
Type in all cases: biochemical, Escherichia coli
[1] = substrate: O=CC(O)COP(=O)(O)O; assay: phosphate release kinetics, Michaelis-Menten (Km); conditions: Mg2+
[2] = substrate: O=P(O)(O)OCC(O)CO; assay: phosphate release kinetics, Michaelis-Menten (Km); conditions: Mg2+
[3] = substrate: CCCCCCCC/C=C\CCCCCCCC(=O)OC[C@@H](O)COP(=O)(O)O; assay: phosphate release kinetics, surface dilution model (Km)

Row | Protein | Km [1] [µM] | Km [2] [µM] | Km ([3]; Mg2+) [µM] | Km [3] [µM]
1 | PgpA (Escherichia coli K-12) (protein, N-terminal His-tagged PgpA purified in DDM) MTILPRHKDVAKSRLKMSNPWHLLAVGFGSGLSPIVPGTMGSLAAIPFWYLMTFLPWQLYSLVVMLGICIGVYLCHQTAKDMGVHDHGSIVWDEFIGMWITLMALPTNDWQWVAAGFVIFRILDMWKPWPIRWFDRNVHGGMGIMIDDIVAGVISAGILYFIGHHWPLGILS | 765 | 327 | 83.8 | –
2 | PgpC (Escherichia coli K-12) (protein, N-terminal His-tagged PgpC purified in DDM) MATHERRVVFFDLDGTLHQQDMFGSFLRYLLRRQPLNALLVLPLLPIIAIALLIKGRAARWPMSLLLWGCTFGHSEARLQTLQADFVRWFRDNVTAFPLVQERLTTYLLSSDADIWLITGSPQPLVEAVYFDTPWLPRVNLIASQIQRGYGGWVLTMRCLGHEKVAQLERKIGTPLRLYSGYSDSNQDNPLLYFCQHRWRVTPRGELQQLE | – | – | 190.2 | –
3 | PgpB (Escherichia coli K-12) (protein, N-terminal His-tagged PgpB purified in DDM) RSIARRTAVGAALLLVMPVAVWISGWRWQPGEQSWLLKAAFWVTETVTQPWGVITHLILFGWFLWCLRFRIKAAFVLFAILAAAILVGQGVKSWIKDKVQEPRPFVIWLEKTHHIPVDEFYTLKRAERGNLVKEQLAEEKNIPQYLRSHWQKETGFAFPSGHTMFAASWALLAVGLLWPRRRTLTIAILLVWATGVMGSRLLLGMHWPRDLVVATLISWALVAVATWLAQRICGPLTPPAEENREIAQREQES | – | – | – | 179.6
